Data as given in patent US20140363428A1 (Chugai, published 2014).

B1: IgG1-F1058 (antibody)
heavy: QVQLQESGPGLVKPSETLSLTCAVSGHSISHDHAWSWVRQPPGEGLEWIGFISYSGITNYNPSLQGRVTISRDNSKNTLYLQMNSLRAEDTAVYYCARSLARTTAMDYWGEGTLVTVSSASTKGPSVFPLAPSSKSTSGGTAALGCLVKDYFPEPVTVSWNSGALTSGVHTFPAVLQSSGLYSLSSVVTVPSSSLGTQTYICNVNHKPSNTKVDKKVEPKSCDKTHTCPPCPAPELLGGPSVFLFPPKPKDTLYISRTPEVTCVVVDVSHEDPEVKFNWYVDGVEVHNAKTKPREEQYNSTYRVVSVLTVLHQDWLNGKEYKCKVSNKALPAPIEKTISKAKGQPREPQVYTLPPSRDELTKNQVSLTCLVKGFYPSDIAVEWESNGEPENNYKTTPPVLDSDGSFFLYSKLTVDKSRWQQGNVFSCSVMHEALHYHVTQKSLSLSP
light: not shown
notes: VH3-IgG1 with Fc substitutions (EU numbering) + L(WT)-CK
B2: IgG1-F1068 (antibody)
heavy: QVQLQESGPGLVKPSETLSLTCAVSGHSISHDHAWSWVRQPPGEGLEWIGFISYSGITNYNPSLQGRVTISRDNSKNTLYLQMNSLRAEDTAVYYCARSLARTTAMDYWGEGTLVTVSSASTKGPSVFPLAPSSKSTSGGTAALGCLVKDYFPEPVTVSWNSGALTSGVHTFPAVLQSSGLYSLSSVVTVPSSSLGTQTYICNVNHKPSNTKVDKKVEPKSCDKTHTCPPCPAPELLGGPSVFLFPPKPKDTLYISRTPEVTCVVVDVSHEDPEVKFNWYVDGVEVHNAKTKPREEQYNSTYRVVSVLTVLHQDWLNGKEYKCKVSNKALPAPIEKTISKAKGQPREPQVYTLPPSRDELTKNQVSLTCLVKGFYPSDIAVEWESNGQPENNYKTTPPVLDSDGSFFLYSKLTVDKSRWQQGNVFRCSVMHEALHYHVTQKSLSLSP
light: not shown
notes: as for B1
B3: IgG1-F1069 (antibody)
heavy: QVQLQESGPGLVKPSETLSLTCAVSGHSISHDHAWSWVRQPPGEGLEWIGFISYSGITNYNPSLQGRVTISRDNSKNTLYLQMNSLRAEDTAVYYCARSLARTTAMDYWGEGTLVTVSSASTKGPSVFPLAPSSKSTSGGTAALGCLVKDYFPEPVTVSWNSGALTSGVHTFPAVLQSSGLYSLSSVVTVPSSSLGTQTYICNVNHKPSNTKVDKKVEPKSCDKTHTCPPCPAPELLGGPSVFLFPPKPKDTLYISRTPEVTCVVVDVSHEDPEVKFNWYVDGVEVHNAKTKPREEQYNSTYRVVSVLTVLHQDWLNGKEYKCKVSNKALPAPIEKTISKAKGQPREPQVYTLPPSRDELTKNQVSLTCLVKGFYPSDIAVEWESNGQPENNYKTTPPVLDSDGSFFLYSKLTVDKSRWQQGNVFSCSVMHEALHYHVTEKSLSLSP
light: not shown
notes: as for B1
B4: IgG1-F1059 (antibody)
heavy: QVQLQESGPGLVKPSETLSLTCAVSGHSISHDHAWSWVRQPPGEGLEWIGFISYSGITNYNPSLQGRVTISRDNSKNTLYLQMNSLRAEDTAVYYCARSLARTTAMDYWGEGTLVTVSSASTKGPSVFPLAPSSKSTSGGTAALGCLVKDYFPEPVTVSWNSGALTSGVHTFPAVLQSSGLYSLSSVVTVPSSSLGTQTYICNVNHKPSNTKVDKKVEPKSCDKTHTCPPCPAPELLGGPSVFLFPPKPKDTLYISRTPEVTCVVVDVSHEDPEVKFNWYVDGVEVHNAKTKPREEQYNSTYRVVSVLTVLHQDWLNGKEYKCKVSNKALPAPIEKTISKAKGQPREPQVYTLPPSRDELTKNQVSLTCLVKGFYPSDIAVEWESNGRPENNYKTTPPVLDSDGSFFLYSKLTVDKSRWQQGNVFSCSVMHEALHYHVTQKSLSLSP
light: not shown
notes: as for B1
B5: IgG1-F1061 (antibody)
heavy: QVQLQESGPGLVKPSETLSLTCAVSGHSISHDHAWSWVRQPPGEGLEWIGFISYSGITNYNPSLQGRVTISRDNSKNTLYLQMNSLRAEDTAVYYCARSLARTTAMDYWGEGTLVTVSSASTKGPSVFPLAPSSKSTSGGTAALGCLVKDYFPEPVTVSWNSGALTSGVHTFPAVLQSSGLYSLSSVVTVPSSSLGTQTYICNVNHKPSNTKVDKKVEPKSCDKTHTCPPCPAPELLGGPSVFLFPPKPKDTLYISRTPEVTCVVVDVSHEDPEVKFNWYVDGVEVHNAKTKPREEQYNSTYRVVSVLTVLHQDWLNGKEYKCKVSNKALPAPIEKTISKAKGQPREPQVYTLPPSRDELTKNQVSLTCLVKGFYPSDIAVEWESNGQEENNYKTTPPVLDSDGSFFLYSKLTVDKSRWQQGNVFSCSVMHEALHYHVTQKSLSLSP
light: not shown
notes: as for B1
B6: IgG1-F1060 (antibody)
heavy: QVQLQESGPGLVKPSETLSLTCAVSGHSISHDHAWSWVRQPPGEGLEWIGFISYSGITNYNPSLQGRVTISRDNSKNTLYLQMNSLRAEDTAVYYCARSLARTTAMDYWGEGTLVTVSSASTKGPSVFPLAPSSKSTSGGTAALGCLVKDYFPEPVTVSWNSGALTSGVHTFPAVLQSSGLYSLSSVVTVPSSSLGTQTYICNVNHKPSNTKVDKKVEPKSCDKTHTCPPCPAPELLGGPSVFLFPPKPKDTLYISRTPEVTCVVVDVSHEDPEVKFNWYVDGVEVHNAKTKPREEQYNSTYRVVSVLTVLHQDWLNGKEYKCKVSNKALPAPIEKTISKAKGQPREPQVYTLPPSRDELTKNQVSLTCLVKGFYPSDIAVEWESNGSPENNYKTTPPVLDSDGSFFLYSKLTVDKSRWQQGNVFSCSVMHEALHYHVTQKSLSLSP
light: not shown
notes: as for B1
B7: IgG1-F1065 (antibody)
heavy: QVQLQESGPGLVKPSETLSLTCAVSGHSISHDHAWSWVRQPPGEGLEWIGFISYSGITNYNPSLQGRVTISRDNSKNTLYLQMNSLRAEDTAVYYCARSLARTTAMDYWGEGTLVTVSSASTKGPSVFPLAPSSKSTSGGTAALGCLVKDYFPEPVTVSWNSGALTSGVHTFPAVLQSSGLYSLSSVVTVPSSSLGTQTYICNVNHKPSNTKVDKKVEPKSCDKTHTCPPCPAPELLGGPSVFLFPPKPKDTLYISRTPEVTCVVVDVSHEDPEVKFNWYVDGVEVHNAKTKPREEQYNSTYRVVSVLTVLHQDWLNGKEYKCKVSNKALPAPIEKTISKAKGQPREPQVYTLPPSRDELTKNQVSLTCLVKGFYPSDIAVEWESNGQPENNYKTTPPVLDSDGSFFLYSKLTVDKSRWQQGNRFSCSVMHEALHYHVTQKSLSLSP
light: not shown
notes: as for B1
B8: IgG1-F1067 (antibody)
heavy: QVQLQESGPGLVKPSETLSLTCAVSGHSISHDHAWSWVRQPPGEGLEWIGFISYSGITNYNPSLQGRVTISRDNSKNTLYLQMNSLRAEDTAVYYCARSLARTTAMDYWGEGTLVTVSSASTKGPSVFPLAPSSKSTSGGTAALGCLVKDYFPEPVTVSWNSGALTSGVHTFPAVLQSSGLYSLSSVVTVPSSSLGTQTYICNVNHKPSNTKVDKKVEPKSCDKTHTCPPCPAPELLGGPSVFLFPPKPKDTLYISRTPEVTCVVVDVSHEDPEVKFNWYVDGVEVHNAKTKPREEQYNSTYRVVSVLTVLHQDWLNGKEYKCKVSNKALPAPIEKTISKAKGQPREPQVYTLPPSRDELTKNQVSLTCLVKGFYPSDIAVEWESNGQPENNYKTTPPVLDSDGSFFLYSKLTVDKSRWQQGNVFECSVMHEALHYHVTQKSLSLSP
light: not shown
notes: as for B1
B9: IgG1-F1070 (antibody)
heavy: QVQLQESGPGLVKPSETLSLTCAVSGHSISHDHAWSWVRQPPGEGLEWIGFISYSGITNYNPSLQGRVTISRDNSKNTLYLQMNSLRAEDTAVYYCARSLARTTAMDYWGEGTLVTVSSASTKGPSVFPLAPSSKSTSGGTAALGCLVKDYFPEPVTVSWNSGALTSGVHTFPAVLQSSGLYSLSSVVTVPSSSLGTQTYICNVNHKPSNTKVDKKVEPKSCDKTHTCPPCPAPELLGGPSVFLFPPKPKDTLYISRTPEVTCVVVDVSHEDPEVKFNWYVDGVEVHNAKTKPREEQYNSTYRVVSVLTVLHQDWLNGKEYKCKVSNKALPAPIEKTISKAKGQPREPQVYTLPPSRDELTKNQVSLTCLVKGFYPSDIAVEWESNGQPENNYKTTPPVLDSDGSFFLYSKLTVDKSRWQQGNVFSCSVMHEALHYHVTRKSLSLSP
light: not shown
notes: as for B1
B10: IgG1-F1063 (antibody)
heavy: QVQLQESGPGLVKPSETLSLTCAVSGHSISHDHAWSWVRQPPGEGLEWIGFISYSGITNYNPSLQGRVTISRDNSKNTLYLQMNSLRAEDTAVYYCARSLARTTAMDYWGEGTLVTVSSASTKGPSVFPLAPSSKSTSGGTAALGCLVKDYFPEPVTVSWNSGALTSGVHTFPAVLQSSGLYSLSSVVTVPSSSLGTQTYICNVNHKPSNTKVDKKVEPKSCDKTHTCPPCPAPELLGGPSVFLFPPKPKDTLYISRTPEVTCVVVDVSHEDPEVKFNWYVDGVEVHNAKTKPREEQYNSTYRVVSVLTVLHQDWLNGKEYKCKVSNKALPAPIEKTISKAKGQPREPQVYTLPPSRDELTKNQVSLTCLVKGFYPSDIAVEWESNGQSENNYKTTPPVLDSDGSFFLYSKLTVDKSRWQQGNVFSCSVMHEALHYHVTQKSLSLSP
light: not shown
notes: as for B1
B11: IgG1-F1066 (antibody)
heavy: QVQLQESGPGLVKPSETLSLTCAVSGHSISHDHAWSWVRQPPGEGLEWIGFISYSGITNYNPSLQGRVTISRDNSKNTLYLQMNSLRAEDTAVYYCARSLARTTAMDYWGEGTLVTVSSASTKGPSVFPLAPSSKSTSGGTAALGCLVKDYFPEPVTVSWNSGALTSGVHTFPAVLQSSGLYSLSSVVTVPSSSLGTQTYICNVNHKPSNTKVDKKVEPKSCDKTHTCPPCPAPELLGGPSVFLFPPKPKDTLYISRTPEVTCVVVDVSHEDPEVKFNWYVDGVEVHNAKTKPREEQYNSTYRVVSVLTVLHQDWLNGKEYKCKVSNKALPAPIEKTISKAKGQPREPQVYTLPPSRDELTKNQVSLTCLVKGFYPSDIAVEWESNGQPENNYKTTPPVLDSDGSFFLYSKLTVDKSRWQQGNSFSCSVMHEALHYHVTQKSLSLSP
light: not shown
notes: as for B1
B12: IgG1-F1064 (antibody)
heavy: QVQLQESGPGLVKPSETLSLTCAVSGHSISHDHAWSWVRQPPGEGLEWIGFISYSGITNYNPSLQGRVTISRDNSKNTLYLQMNSLRAEDTAVYYCARSLARTTAMDYWGEGTLVTVSSASTKGPSVFPLAPSSKSTSGGTAALGCLVKDYFPEPVTVSWNSGALTSGVHTFPAVLQSSGLYSLSSVVTVPSSSLGTQTYICNVNHKPSNTKVDKKVEPKSCDKTHTCPPCPAPELLGGPSVFLFPPKPKDTLYISRTPEVTCVVVDVSHEDPEVKFNWYVDGVEVHNAKTKPREEQYNSTYRVVSVLTVLHQDWLNGKEYKCKVSNKALPAPIEKTISKAKGQPREPQVYTLPPSRDELTKNQVSLTCLVKGFYPSDIAVEWESNGQPENNYKTTPPVLDSDGSFFLYSKLTVDKSRWQQGNEFSCSVMHEALHYHVTQKSLSLSP
light: not shown
notes: as for B1

target: T1, soluble human FcRn (heterodimer of FcRn alpha chain and beta2-microglobulin) (human, UniProt P55899 24-297; P61769 21-119); assay: SPR Biacore T100, antibody captured via protein L, hFcRn analyte, pH 7.0, 25 C;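 also: KD derived from kinetic ka and kd fits of sensorgrams, CM4 sensor chip, sodium phosphate NaCl Tween20 running buffer, buffer-only injection used as reference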
T1 construct: Expressed in HEK293H and purified on IgG Sepharose; also called hFcRn
T1 sequence (P55899 24-297 limits assumed, chain 1 of 2): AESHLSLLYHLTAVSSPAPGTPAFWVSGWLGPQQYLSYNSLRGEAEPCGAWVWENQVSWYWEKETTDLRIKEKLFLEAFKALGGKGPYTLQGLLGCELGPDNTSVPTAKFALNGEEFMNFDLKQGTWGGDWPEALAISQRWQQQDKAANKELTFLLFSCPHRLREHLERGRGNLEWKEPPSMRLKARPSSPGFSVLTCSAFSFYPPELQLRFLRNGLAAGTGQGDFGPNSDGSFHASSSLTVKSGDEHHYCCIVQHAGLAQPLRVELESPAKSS
T1 sequence (P61769 21-119 limits assumed, chain 2 of 2): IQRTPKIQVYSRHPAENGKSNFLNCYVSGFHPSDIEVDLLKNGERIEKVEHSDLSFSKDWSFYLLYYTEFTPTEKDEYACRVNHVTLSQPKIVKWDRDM
Experimental: An appropriate amount of protein L (ACTIGEN) was immobilized onto Sensor chip CM4 (GE Healthcare) by the amino coupling method, and the chip was allowed to capture an antibody of interest. Then, diluted FcRn solutions and running buffer (as a reference solution) were injected to allow human FcRn to interact with the antibody captured on the sensor chip. The running buffer used comprised 50 mmol/l sodium phosphate, 150 mmol/l NaCl, and 0.05% (w/v) Tween20 (pH 7.0). FcRn was diluted using each buffer. The chip was regenerated using 10 mmol/l glycine-HCl (pH 1.5). Assays were carried out exclusively at 25 degrees C. The association rate constant ka (1/Ms) and dissociation rate constant kd (1/s), both of which are kinetic parameters, were calculated based on the sensorgrams obtained in the assays, and KD (M) of each antibody for human FcRn was determined from these values. Each parameter was calculated using Biacore T100 Evaluation Software (GE Healthcare).

**Q.** With B1 as the binder, how does the Kd read?
**A.** The Kd was 130 nM.

**Q.** For B2, which Kd is on record?
**A.** Its Kd is 170 nM.

**Q.** B3 was tested. Which Kd did it give?
**A.** Its Kd is 140 nM.

**Q.** Which Kd does the source give for B4 here?
**A.** Its Kd is 140 nM.

**Q.** With B5 as the binder, how does the Kd read?
**A.** Its Kd is 120 nM.

**Q.** Which Kd does the source give for B6 here?
**A.** Its Kd is 140 nM.

**Q.** Which Kd does the source give for B7 here?
**A.** The Kd was 140 nM.

**Q.** For B8, which Kd is on record?
**A.** Its Kd is 130 nM.

**Q.** For B9, which Kd is on record?
**A.** Its Kd is 170 nM.

**Q.** With B10 as the binder, how does the Kd read?
**A.** Its Kd is 140 nM.

**Q.** With B11 as the binder, how does the Kd read?
**A.** Its Kd is 140 nM.

**Q.** With B12 as the binder, how does the Kd read?
**A.** The Kd was 130 nM.
